This note sets out measurements from the supplement of paper PMC12764529.

Data set [1] can be described thus: folding stability dG unfold from trypsin proteolysis; higher = more stable. The procedure, abridged:
(§1)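 Bayesian fitting of sequencing counts gave K50 for each design. Unfolding free energy followed by setting this against a sequence-predicted unfolded-state K50 and a shared folded-state K50, either per protease or with trypsin and chymotrypsin combined. The designs, under 80 residues and lacking cysteine, were digested in a PA-tagged cDNA display format at 11 threefold-diluted protease concentrations and without protease, and only those with AlphaFold2 dimer inter-PAE above 15 were kept.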

Data set [2] in a line: folding stability dG unfold from chymotrypsin proteolysis; higher = more stable. The procedure, abridged: as §1
Data set [3] is described as follows: folding stability dG unfold (combined trypsin and chymotrypsin); higher = more stable. Summed up:
as §1

± gives the half width of the 95% confidence interval.

With “SAGGKIPPGMKLEIEDINIEFYNNGWIKITVKMTIWAPDGKTMTMTMTIVIPIRPPPPPPNDPENNESAGGS [r8_90_TrROS]”, the “folding stability dG unfold” value in data set [1] was 3.91 ± 0.45 kcal/mol; in data set [2], 4.77 ± 0.24 kcal/mol; in data set [3], 4.29 ± 0.44 kcal/mol.

For “SAGGKKETVKVTLEIEVNGKKYKIELTKNKDGTVTIKITDKNGKKIEIEIPMSPEDVKKLLEELLKKLSAGG [r13_296_TrROS_Hall]”, the “folding stability dG unfold” value in data set [1] came to 2.17 ± 0.11 kcal/mol; in data set [2] it was 3.93 ± 0.094 kcal/mol; in data set [3] it was 3.56 ± 0.076 kcal/mol.

As for “SAGGKKFYVEVKINLKDKTIYLIKEVKPGNLEKLIKEIEKKGIKEAGIDEIKIFPKDGYIEIKGGEKSAGGS [r8_219_TrMRF]”, the “folding stability dG unfold” value in data set [1] amounted to 0.279 ± 0.061 kcal/mol; in data set [2], 1.18 ± 0.08 kcal/mol; in data set [3] it was 0.801 ± 0.1 kcal/mol.

With “SAGGKKHYLVKVKATLTDKNGKKIAEVEFIFHFESPEELEEALKSIPSKYITEVKILSIEEIPEEEFSAGGS [r16_677_TrMRF]”, the “folding stability dG unfold” value came to 3.36 ± 0.18 kcal/mol in data set [1], 3.65 ± 0.091 kcal/mol in data set [2] and 3.55 ± 0.18 kcal/mol in data set [3].

As for “SAGGKKIEIKEGDTVKLKNATITLNGKTFKIKDAEAKVVKVDKKKKKVIIEITLKNGKKETFVFDIKSAGGS [r8_215_TrROS_Hall]”, the “folding stability dG unfold” value in data set [1] amounted to 2.4 ± 0.13 kcal/mol; in data set [2] it was 3.331 ± 0.026 kcal/mol; in data set [3], 3.15 ± 0.16 kcal/mol.

For “SAGGKKKAKAYIVEKTTEKEGLKYYKVLIELGGKPLVFVIKSTSLEEVEEAIKKLAEELGVEVEIVPGSAGG [r13_750_TrMRF]”, the “folding stability dG unfold” value came out at 3.77 ± 0.1 kcal/mol in data set [1], 4.69 ± 0.089 kcal/mol in data set [2] and 4.53 ± 0.08 kcal/mol in data set [3].

With “SAGGKKKIKIIEKKKINGKTILKIEVDGKKIIIIKTPNKVYIFVIDKNGKKKVIEMSPEEALKKLIEKSAGG [r13_98_TrROS_Hall]”, the “folding stability dG unfold” value in data set [1] amounted to 2.08 ± 0.075 kcal/mol; in data set [2], 3.95 ± 0.042 kcal/mol; in data set [3], 3.59 ± 0.13 kcal/mol.

“SAGGKKKITITIEEVEELENGPLVYRVTIEVDGKTYEILIEADSLEEAKAAAEKLAEELNVEVTIEPVSAGG [r13_750_TrROS_Hall]”: the “folding stability dG unfold” value in data set [1] stood at 2.55 ± 0.097 kcal/mol; in data set [2] it was 4.22 ± 0.048 kcal/mol; in data set [3], 3.86 ± 0.11 kcal/mol.

Regarding “SAGGKKKKKKPKIVRVKITLKNENGEEIEIDEAVILPDGTILIRDKKTGKIFEIKLDDITKIEIEEVSAGGS [r8_410_TrROS_Hall]”, the “folding stability dG unfold” value turned out to be 1.99 ± 0.086 kcal/mol in data set [1], 3.02 ± 0.098 kcal/mol in data set [2] and 2.8 ± 0.17 kcal/mol in data set [3].

“SAGGKKKKLVIKDKKTNKYYEIENAKEIVKIEKVKGKDGKTYYVIYFKKTKKKIVIKTKEDLEKALKSAGGS [r8_206_TrROS_Hall]”: the “folding stability dG unfold” value came to 1.26 ± 0.24 kcal/mol in data set [1], 1.18 ± 0.38 kcal/mol in data set [2] and 1.23 ± 0.29 kcal/mol in data set [3].

With “SAGGKKKKVKKIKVKVKIKLKNGEEVTITEAYVLPDGTVIIKVEVTKPDGSKETKTFTIPLKDIEIESAGGS [r16_498_TrROS_Hall]”, the “folding stability dG unfold” value stood at 2.24 ± 0.075 kcal/mol in data set [1], 3.7 ± 0.07 kcal/mol in data set [2] and 3.34 ± 0.11 kcal/mol in data set [3].

Turning to “SAGGKKKLTLEIKIKVPKEEEEKAKEKAKKLAEELAKKLKEAGYKVKVTVEIDEETGEITVKVEVELPSAGG [r13_755_TrROS_Hall]”, the “folding stability dG unfold” value was found to be 2.84 ± 0.34 kcal/mol in data set [1], 3.54 ± 0.55 kcal/mol in data set [2] and 3.43 ± 0.49 kcal/mol in data set [3].

With “SAGGKKKPKIRIKVEIDGKTVEVEVESPEELVEALKELGFEVEVVEVTEKTVVIKLKDGKLIRIEKESAGGS [r8_365_TrROS_Hall]”, the “folding stability dG unfold” value in data set [1] is 1.91 ± 0.072 kcal/mol; in data set [2], 2.06 ± 0.026 kcal/mol; in data set [3], 2.02 ± 0.047 kcal/mol.

With “SAGGKKKTIVLEVKVENLEEILKLAKEAAKAGDKVTVKVKLPDGEVYTVTVDVKTGKIVKVEKKKLPKSAGG [r13_873_TrROS_Hall]”, the “folding stability dG unfold” value in data set [1] stood at 1.98 ± 0.097 kcal/mol; in data set [2], 3.3 ± 0.18 kcal/mol; in data set [3], 2.81 ± 0.2 kcal/mol.

Take “SAGGKKKVIEIKIEIKVPKEELKNMTKEEIAELLKKELEKKGIKIKKIEIVEIEIDGDTVTITIRIELSAGG [r13_432_TrROS_Hall]”: the figures for the “folding stability dG unfold” value in data set [1], in data set [2] and in data set [3] were 2.18 ± 0.15 kcal/mol, 2.92 ± 0.2 kcal/mol and 2.72 ± 0.3 kcal/mol, respectively.

Consider “SAGGKKNEKKPIEIDGVFFNPETGKLVKIGPAKIIVPKNAKIELEAEVFDPVTGEVKKVKFKFELPAGSAGG [r13_206_TrMRF]”, for which the “folding stability dG unfold” value came to 0.548 ± 0.057 kcal/mol in data set [1], 0.816 ± 0.094 kcal/mol in data set [2] and 0.699 ± 0.14 kcal/mol in data set [3].

With “SAGGKKNKPKPKVKVKILSVTANPDPNTPGLLSVSVPVLIESDDEEFALALAKELAKLPNVKVVVLGGSAGG [r13_606_TrMRF]”, the “folding stability dG unfold” value in data set [1] amounted to 1.34 ± 0.023 kcal/mol; in data set [2], 1.42 ± 0.037 kcal/mol; in data set [3] it was 1.42 ± 0.048 kcal/mol.

On to “SAGGKKVEITIEASPEEAEELAKKLEELFPDVKVEVVEVKPEEPVRVTVRVEVKVELSPEELKKLLESAGGS [r16_180_TrROS_Hall]”, for which the “folding stability dG unfold” value in data set [1] was found to be 1.45 ± 0.085 kcal/mol; in data set [2], 1.37 ± 0.11 kcal/mol; in data set [3], 1.4 ± 0.14 kcal/mol.

For “SAGGKKVIITKVETNKNGKKTYTVTLYYKDKKTNEWKKVAEFTFESKEEAENAAKELAKKLNLKIIPSAGGS [r16_512_TrROS_Hall]”, the “folding stability dG unfold” value was 3.08 ± 0.087 kcal/mol in data set [1], 5 ± 0.088 kcal/mol in data set [2] and 4.77 ± 0.11 kcal/mol in data set [3].

As to “SAGGKKVIVIEGLTEEEILEKIKEEFPEPVEVIIRRPDGYVVKITVDAKTREIKKVEVVKVPPPEKPSAGGS [r8_225_TrROS_Hall]”, the “folding stability dG unfold” value was determined as 1.57 ± 0.15 kcal/mol in data set [1], 2.01 ± 0.16 kcal/mol in data set [2] and 1.79 ± 0.29 kcal/mol in data set [3].

With “SAGGKLIIVIEVNGETIEVDLEEAETLEEAIQKVLDEIRERFPEIGTVRIKVFDEKGKLIKEIEIKLKSAGG [r13_257_TrROS_Hall]”, the “folding stability dG unfold” value in data set [1] was 3.25 ± 0.12 kcal/mol; in data set [2] it was 3.6 ± 0.18 kcal/mol; in data set [3], 3.51 ± 0.17 kcal/mol.

Regarding “SAGGKLLEELNVEKVEVVEVKEFSLPPLPLLVLLPTVTVTFKDGSKVKFKVLFLYDPSNPKPIVVAGSAGGS [r8_422_TrMRF]”, the entries for the “folding stability dG unfold” value in data set [1], in data set [2] and in data set [3] were 2.42 ± 0.1 kcal/mol, 3.64 ± 0.048 kcal/mol and 3.07 ± 0.16 kcal/mol, respectively.

With “SAGGKLPKLPPGQIEIMDFQIEPDPDGRYKMSFMITITAPDNGKKVVVMLEMWMPPDGEMKTGIGIMPSAGG [r13_263_TrROS]”, the results for the “folding stability dG unfold” value in data set [1], in data set [2] and in data set [3] were 1.9 ± 0.14 kcal/mol, 2.85 ± 0.15 kcal/mol and 2.65 ± 0.34 kcal/mol, respectively.

“SAGGKLTLELEFELEDGLRVRLRVEVDEDGELRVTLEVEPEPPPPPIRVVKNEDGSEYVYRNGKLYKLSAGG [r13_151_TrROS_Hall]”: the “folding stability dG unfold” value in data set [1] came out at 3.55 ± 0.16 kcal/mol; in data set [2] it was 5.18 ± 0.45 kcal/mol; in data set [3] it was 4.16 ± 0.84 kcal/mol.

Take “SAGGKMVKIKIVVEVKVEEEVKEGEKVETFKVELTIELPEEEVEKLKAELEKLFPDVKIVEIEKVEPSAGGS [r8_490_TrROS_Hall]”: the “folding stability dG unfold” value in data set [1] came to 3.39 ± 0.24 kcal/mol; in data set [2], 3.86 ± 0.47 kcal/mol; in data set [3], 3.7 ± 0.34 kcal/mol.

Turning to “SAGGKNVKKYVPIEIEIEAPSPEVAEATAEEIEKIIREKFPGAKVEVEMEPLPDGGYKLKVKVYVPVGSAGG [r13_17_TrMRF]”, the “folding stability dG unfold” value in data set [1] came to 1.82 ± 0.059 kcal/mol; in data set [2], 3.47 ± 0.059 kcal/mol; in data set [3], 3.11 ± 0.07 kcal/mol.

For “SAGGKPAKPTRLDFPDDDVKTVPANTKIILTRPDGSKLVIELPEEEFTAKPDEWVFETPTSKITFPIASAGG [r13_643_TrMRF]”, the “folding stability dG unfold” value in data set [1] amounted to 0.767 ± 0.092 kcal/mol; in data set [2] it was 0.657 ± 0.15 kcal/mol; in data set [3], 0.725 ± 0.21 kcal/mol.

In the case of “SAGGKPGEKPRIRIQVKVRYPGNGRKQSITIEIVPDAIEQGLSASELADEIARKMGMPVKIEEIEILSAGGS [r16_554_TrROS]”, the “folding stability dG unfold” value in data set [1] turned out to be 1.873 ± 0.015 kcal/mol; in data set [2] it was 1.692 ± 0.013 kcal/mol; in data set [3] it was 1.79 ± 0.04 kcal/mol.

On to “SAGGKPKEIKIKVEVEEKEVNGKKYLVVKIELEVDGKKIEIELVVEMSEEEKEKAKKLAEELLKKLKSAGGS [r8_480_TrROS_Hall]”, for which the figures for the “folding stability dG unfold” value in data set [1], in data set [2] and in data set [3] were 2.6 ± 0.21 kcal/mol, 2.77 ± 0.22 kcal/mol and 2.82 ± 0.4 kcal/mol, respectively.

“SAGGKPLTVEDAKELAESLAKPLKEELGLGNVKILAAPVEVGGEEGKPAEVRIGFLFDLSEDGEFVGSAGGS [r16_751_TrMRF]”: the “folding stability dG unfold” value in data set [1] is -0.405 ± 0.31 kcal/mol; in data set [2], 0.0162 ± 0.16 kcal/mol; in data set [3], -0.112 ± 0.23 kcal/mol.

For “SAGGKPNWVWFKITINVTPEQLENMTLDEIADRVIDELMKLGFPIKKIEIDEIQWDGDRVTIYIRIRVSAGG [r13_432_TrROS]”, the figures for the “folding stability dG unfold” value in data set [1], in data set [2] and in data set [3] were 4.18 ± 0.16 kcal/mol, 4.59 ± 0.099 kcal/mol and 4.35 ± 0.14 kcal/mol, respectively.

Consider “SAGGKPPGLSEIPLPDNKTEKVPVNSDIVLKRPDGTELKYKLPPEPVTTEKNKYTIKLPNGEITIPINSAGG [r13_643_JUSTAS]”, for which the entries for the “folding stability dG unfold” value in data set [1], in data set [2] and in data set [3] were -1.03 ± 0.26 kcal/mol, -0.0683 ± 0.26 kcal/mol and -0.0992 ± 0.32 kcal/mol, respectively.

Regarding “SAGGKPPKIVVKVEKAPNPETGTYTYKVVLYDPVTGKAYVKPVKTKTPEELEKKAKEVAEELAKELASAGGS [r8_480_TrMRF]”, the “folding stability dG unfold” value is 0.727 ± 0.025 kcal/mol in data set [1], 1.34 ± 0.12 kcal/mol in data set [2] and 1.17 ± 0.084 kcal/mol in data set [3].

In the case of “SAGGKPRILLRRETAPDGRPYYVLQVLRRDPSDDGWTPVLEHRFETPEEAERYARELAEKTGYELVGSAGGS [r16_512_TrMRF]”, the “folding stability dG unfold” value in data set [1] was found to be 4 ± 0.11 kcal/mol; in data set [2] it was 4.9 ± 0.11 kcal/mol; in data set [3], 4.72 ± 0.075 kcal/mol.

For “SAGGKRRTINFDIEGMTPEKFVHMARMAIRNLPDPEQVTITINMRNPMWRRWFIELAKELPGIEIEFMSAGG [r13_718_TrROS]”, the “folding stability dG unfold” value was 2.52 ± 0.061 kcal/mol in data set [1], 3.43 ± 0.044 kcal/mol in data set [2] and 3.19 ± 0.15 kcal/mol in data set [3].
